Data set [1] deals with primary human meniscus cells. The data set can be described thus: NGF stimulated PGE2 release in primary human meniscus cells. Type of data set: cell-based. To be noted: 10 ng/ml rhNGF, 2 days; 0.1 μM Dexamethasone, 0.1 μM Triamcinolone, 375 ng/ml anti-betaNGF antibody, 300 ng/ml R399E. The procedure:
Primary meniscus cells from total knee replacement surgeries were freshly prepared one day post-surgery within the frame of an ethical permission. First, skin and muscle were removed to isolate the menisci. The menisci were transferred into a 10 cm dish filled with HAM's F12+1% P/S+1% Amphotericin B. The tissue was cut into small pieces of approximately 3×3 mm and transferred into a sterile beaker for digestion. Digestion was performed for 16 h in 50 ml of a 0.4% Collagenase in HAM's F12+1% P/S+1% Amphotericin solution at 37° C., 7.5% CO2 under constant stirring. After 16 h the solution was pipetted through a 100 μm filter followed by a 40 μm filter and then centrifuged for 5 min at 1400 g. The remaining pellet, containing the cells was resuspended in 20 ml of HAM's F12+1% P/S+1% Amphotericin+10% FCS. Cell number was counted, and cell viability was determined. Finally, 10,000 cells per well were seeded in a 96 well plate. Cells were cultivated up to 1 week to reach confluency. In between medium was exchanged once. […] The effect of the individual compounds was compared to cells which were stimulated with rhNGF only. After 2 days incubation, the supernatant was removed for determination of Prostaglandin E2 (PGE2) in the medium.

The subject of the next data set is rabbit ACLT+pMx OA model. The data set can be described thus: rabbit ACLT+pMx OA model, static incapacitance test, comparison with Triamcinolone and anti-NGF-antibody (KK-rabbit-17-01). It is filed as in vivo, New Zealand white (NZW) rabbits. On the procedure:
Baseline incapacitance measurement was made 2 times prior to surgery. OA was induced by ACLT+pMx knee surgery in rabbits in the right knee joint in week 0. […] Weight bearing was measured using a contact-free static incapacitance measurement whereby plates measure pressure put on the operated and injected right hindlimb in comparison to the left unoperated hindlimb. Data are percent weight put on the right over the left hindlimb, whereby 50% corresponds to equal loading of both legs and 0% to load on the unoperated left limb only. Effect size was compared to clinically effective Triamcinolone treatment. 1.41 mg Triamcinolone correspond to human equivalent dose calculation based on metabolic body weight, synovial fluid volume and cartilage surface area.
Baseline incapacitance measurement was made 2 times prior to surgery. OA was induced by ACLT+pMx knee surgery in rabbits in the right knee joint in week 0. […] Weight bearing was measured using a contact-free static incapacitance measurement whereby plates measure pressure put on the operated and injected right hindlimb in comparison to the left unoperated hindlimb. Data are percent weight put on the right over the left hindlimb, whereby 50% corresponds to equal loading of both legs and 0% to load on the unoperated left limb only. […]

For data set [2], the target named is T1, BMPR-IB (Homo sapiens, UniProt O00238). The data set is described as follows: in vitro binding affinity for BMPR-IB. An excerpt:
This can be achieved by specific substitutions of one or more amino acid residues relating to a BMPR-IB and/or BMPR-IA binding site in the amino acid sequence of a GDF-5 related protein.
The binding affinity of GDF-5 related proteins having specific substitutions is compared to the binding affinity of human wild-type GDF-5 related protein, in particular human wild-type GDF-5.

The target in data set [3] is T1, BMPR-IB. As to conditions: in vitro; cited from earlier work.
The target of another data set is BMPR-IA (Homo sapiens, UniProt P36894). To be noted: in vitro; cited from earlier work.
Chain of BMPR-IA (P36894 24-532): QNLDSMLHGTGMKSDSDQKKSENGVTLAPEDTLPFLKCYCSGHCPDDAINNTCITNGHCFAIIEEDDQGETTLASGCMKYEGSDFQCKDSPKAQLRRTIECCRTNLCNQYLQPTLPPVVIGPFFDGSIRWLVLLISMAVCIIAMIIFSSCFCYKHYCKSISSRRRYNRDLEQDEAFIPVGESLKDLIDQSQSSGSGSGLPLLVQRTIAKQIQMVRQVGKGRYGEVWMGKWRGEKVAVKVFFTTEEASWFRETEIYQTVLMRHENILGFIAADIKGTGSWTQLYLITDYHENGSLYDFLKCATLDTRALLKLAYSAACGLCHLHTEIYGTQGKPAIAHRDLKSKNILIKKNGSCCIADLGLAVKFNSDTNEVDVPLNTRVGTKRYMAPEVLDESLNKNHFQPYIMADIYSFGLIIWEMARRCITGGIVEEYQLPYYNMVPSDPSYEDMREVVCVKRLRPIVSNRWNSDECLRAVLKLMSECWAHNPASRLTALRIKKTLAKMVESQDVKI
The subject of a further data set is OA patients. As to conditions: cited from earlier work.

Like-named read-outs stand apart in the source and are kept apart here.

T1 sequence (O00238 14-502): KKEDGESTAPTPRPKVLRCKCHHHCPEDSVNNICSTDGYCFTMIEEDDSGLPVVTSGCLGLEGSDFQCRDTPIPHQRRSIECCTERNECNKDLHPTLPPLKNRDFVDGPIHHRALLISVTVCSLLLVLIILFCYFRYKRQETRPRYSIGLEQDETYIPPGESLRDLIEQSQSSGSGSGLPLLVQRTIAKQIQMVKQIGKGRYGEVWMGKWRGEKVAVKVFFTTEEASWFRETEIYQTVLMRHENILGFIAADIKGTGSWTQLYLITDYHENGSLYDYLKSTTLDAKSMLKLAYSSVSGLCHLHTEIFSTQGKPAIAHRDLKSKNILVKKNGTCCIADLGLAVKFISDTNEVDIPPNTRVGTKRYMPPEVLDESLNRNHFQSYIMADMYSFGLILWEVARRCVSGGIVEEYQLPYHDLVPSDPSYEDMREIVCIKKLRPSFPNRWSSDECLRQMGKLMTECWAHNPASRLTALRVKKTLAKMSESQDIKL

On to `C[C@]12C=CC(=O)C=C1CC[C@H]1[C@@H]3C[C@@H](O)[C@](O)(C(=O)CO)[C@@]3(C)C[C@H](O)[C@@]12F` [Triamcinolone], for which the “rhNGF induced PGE2 in the medium” value in data set [1] was “significantly inhibited”. For the same molecule, the “symptomatic effect compared to placebo (incapacitance)” value in the data set with rabbit ACLT+pMx OA model (1.41 mg IA in week 1, week 2 post surgery) is on record as −11.6%. Besides, the “effect on pain (incapacitance)” value with rabbit ACLT+pMx OA model (1.41 mg IA once in week 1, 6 hours after injection) is given as “significant effect on pain”.
In general, Kd refers to the constant that tells how readily two partners part at equilibrium. Regarding “Wild-type GDF-5: morphogen, also known as bone morphogenetic protein-14 (BMP-14) or cartilage-derived morphogenetic protein-1 (CDMP-1)”, in the data set with BMPR-IB [2], the “fold higher affinity for BMPR-IB as compared with BMPR-IA” value is given as 40- to 120 fold. The results for the Kd with BMPR-IB [3] and in the data set with BMPR-IA were 8 to 27 pM and 1000 to 1100 pM, respectively.
As to “tanezumab: anti-NGF (nerve growth factor) antibody (tanezumab, Pfizer) under clinical development for OA”, the “incidence of RPOA overall” value with OA patients (tanezumab 2.5 mg arm) is listed as 3.2%; with OA patients (tanezumab 5 mg arm), 6.3%.

The values above are taken from patent publication US20220387556A1, “USE OF THE GDF-5 MUTANT FOR THE TREATMENT OF PAIN AND CARTILAGE DESTRUCTION” (Merck Patent GmbH, priority 2019, published 2022).
